In US7628975B2, “Compositions and methods for detecting and quantifying COX-2 activity and 2-arachidonylgycerol metabolites” (Vanderbilt University, priority 2000, dated 2009):

Tests used:
[1] = target: T1, COX-2 (Homo sapiens, UniProt P35354); experiment: HPLC/UV quantification of products in base-treated COX-2/2-AG incubation mixtures; assay type: biochemical; conditions: COX-2 oxygenation of 2-AG, n=5
T1 sequence (P35354 18-604): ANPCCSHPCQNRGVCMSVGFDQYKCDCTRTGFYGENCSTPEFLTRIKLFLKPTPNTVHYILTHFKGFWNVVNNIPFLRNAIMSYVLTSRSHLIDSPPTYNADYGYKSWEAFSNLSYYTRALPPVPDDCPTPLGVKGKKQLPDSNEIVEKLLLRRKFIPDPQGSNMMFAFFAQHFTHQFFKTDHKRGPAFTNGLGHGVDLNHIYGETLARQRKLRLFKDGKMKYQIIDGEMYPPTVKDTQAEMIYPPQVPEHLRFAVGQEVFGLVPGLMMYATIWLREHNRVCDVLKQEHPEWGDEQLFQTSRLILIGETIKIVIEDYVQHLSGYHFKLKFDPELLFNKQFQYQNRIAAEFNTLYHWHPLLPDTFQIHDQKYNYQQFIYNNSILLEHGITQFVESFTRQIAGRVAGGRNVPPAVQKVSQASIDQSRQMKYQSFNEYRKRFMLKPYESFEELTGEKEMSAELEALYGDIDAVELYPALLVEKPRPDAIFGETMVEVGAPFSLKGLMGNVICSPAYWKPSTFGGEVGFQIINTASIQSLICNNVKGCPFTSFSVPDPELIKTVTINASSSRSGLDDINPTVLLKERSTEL
Experimental: Estimates of relative amounts of the individual PG-Gs can be made by reversed-phase HPLC with UV detection. […] Quantification of PGE2-G and HETE-Gs is accomplished by HPLC/UV analysis of base-treated COX-2/2-AG incubation mixtures using 5-HETE as an internal standard. PGE2-G is the major product of oxygenation (PGE2-G/HETE-G=4.0±0.1, n=5) and 11-HETE-G is more abundant than 15-HETE-G (11-HETE-G/15-HETE-G=3.4±0.1, n=5). HETE-G regiochemistry is confirmed by mass spectrometry of saponified, HPLC-purified HETE products.

[2] = test system: RAW264.7 cells; experiment: Exogenous 2-AG metabolism to PGD2-G by RAW264.7 cells (LC/MS); assay type: cell-based, murine; conditions: inhibitor 3 μM, activated RAW264.7 cells, 2-AG 20 μM
Experimental: Briefly, macrophages (30-50% confluence) are activated with IFN-γ (10 units/mL) and LPS (1 μg/mL) in serum-free DMEM for 7 hr at 37° C. prior to treatment. Activated RAW264.7 cell media are aspirated and replaced with fresh serum-free DMEM or PBS. […] After 30 min, medium or PBS is removed and extracted two times with an equal volume of CHCl3:MeOH (2:1). The solvent is evaporated and the residue is dissolved in 1 mL H2O:MeCN (95:5) and applied to a water-charged C18 solid phase extraction column (Varian). Following a water wash, glyceryl prostaglandins are eluted with H2O:MeCN (3:7). The eluant is lyophilized, dissolved in H2O:MeCN (1:1), and subjected to LC/MS analysis. […] Activated RAW264.7 cell medium is aspirated and replaced with fresh serum-free DMEM. […] After 20 min, medium is removed and the cells are treated with 8.0 ng pentadeuterated glyceryl prostaglandin standard. Medium is collected and extracted two times with an equal volume of CHCl3:MeOH (2:1). The solvent is evaporated and the residue is redissolved in H2O:MeCN (1:1), filtered (0.22 μm nylon), and subjected to LC/MS analysis.

[3] = buffer
Experimental: Then, a metabolite of the COX-2 selective substrate, such as PGH2-G, is measured.

[4] = substrate: CCCCC/C=C\C/C=C\C/C=C\C/C=C\CCCC(=O)O; experiment: Steady-state kinetics of COX-2 mediated oxygenation (O2 uptake), human enzyme; assay type: biochemical; conditions: other: hCOX-2, substrate oxygenation
Experimental: (§1) The ability of COX-1 and COX-2 to metabolize different substrates, such as 2-AG and arachidonic acid (AA) can be determined, for example, by measuring relative oxygen uptake. FIG. 9 is a representative oxygen uptake curve for 100 μM 2-AG or AA treated with 150 nM purified COX-2 or 150 nM ovine COX-1. The horizontal bar represents 20-seconds. The vertical bar represents 10 μM O2 uptake.

[5] = substrate: CCCCC/C=C\C/C=C\C/C=C\C/C=C\CCCCOC(CO)CO; experiment: as above; assay type: biochemical; conditions: other: hCOX-2, substrate oxygenation
Experimental: as §1

[6] = substrate: CCCCC/C=C\C/C=C\C/C=C\C/C=C\CCCC(=O)O; experiment: Steady-state kinetics of COX-2 mediated oxygenation (O2 uptake), murine enzyme; assay type: biochemical; conditions: other: mCOX-2, substrate oxygenation
Experimental: as §1

[7] = substrate: CCCCC/C=C\C/C=C\C/C=C\C/C=C\CCCCOC(CO)CO; experiment: as above; assay type: biochemical; conditions: other: mCOX-2, substrate oxygenation
Experimental: as §1

Work on CCCCCC=CC=CC(O)CC=CCC=CCCCC(=O)OC(CO)CO (centres unmarked) [11-HETE-G, 11-hydroxy-eicosatetranoic glycerol ester] yielded a 11-HETE-G/15-HETE-G product ratio [1] of 3.4±0.1.

For COc1ccc2c(c1)c(CC(=O)NCCc1ccccc1)c(C)n2C(=O)c1ccc(Cl)cc1 [indomethacin phenethylamide, 2-[1-(4-chlorobenzoyl)-5-methoxy-2-methyl-1H-indol-3-yl]-N-phenethylacetamide], the “Effect on PGD2-G biosynthesis” value [2] was “inhibited”.

In the case of CCCCC[C@H](O)/C=C/[C@@H]1[C@@H](C/C=C\CCCC(=O)OC(CO)CO)[C@@H]2C[C@H]1OO2 [PGH2-G, prostaglandin H2-glycerol ester], the “half-life in aqueous solution” value [3] is reported as “approximately 20 seconds”.

Molecule CCCCC[C@H](O)/C=C/[C@H]1[C@H](O)CC(=O)[C@@H]1C/C=C\CCCC(=O)OCC(O)CO (some centres unmarked) [PGE2-G, prostaglandin E2-glycerol ester] has a PGE2-G/HETE-G product ratio [1] of 4.0±0.1.

For COc1ccc2c(c1)c(CC(=O)O)c(C)n2C(=O)c1ccc(Cl)cc1 [indomethacin], the “Effect on PGD2-G biosynthesis” value [2] was “inhibited”.

B1: hCOX-2 (Homo sapiens) (protein)
chain: T1 sequence (P35354 18-604)
For B1, the Km [4] was 6.1 ± 0.6 µM, the kcat [4] was 14.7 ± 0.5 s⁻¹ and the kcat/Km [4] was 2.4e+06 M⁻¹ s⁻¹. The Km [5] was 4.4 ± 0.9 µM, the kcat [5] was 17.4 ± 1.1 s⁻¹ and the kcat/Km [5] was 4e+06 M⁻¹ s⁻¹.

B2: mCOX-2 (Mus musculus) (protein)
chain: ANPCCSNPCQNRGECMSTGFDQYKCDCTRTGFYGENCTTPEFLTRIKLLLKPTPNTVHYILTHFKGVWNIVNNIPFLRSLIMKYVLTSRSYLIDSPPTYNVHYGYKSWEAFSNLSYYTRALPPVADDCPTPMGVKGNKELPDSKEVLEKVLLRREFIPDPQGSNMMFAFFAQHFTHQFFKTDHKRGPGFTRGLGHGVDLNHIYGETLDRQHKLRLFKDGKLKYQVIGGEVYPPTVKDTQVEMIYPPHIPENLQFAVGQEVFGLVPGLMMYATIWLREHNRVCDILKQEHPEWGDEQLFQTSRLILIGETIKIVIEDYVQHLSGYHFKLKFDPELLFNQQFQYQNRIASEFNTLYHWHPLLPDTFNIEDQEYSFKQFLYNNSILLEHGLTQFVESFTRQIAGRVAGGRNVPIAVQAVAKASIDQSREMKYQSLNEYRKRFSLKPYTSFEELTGEKEMAAELKALYSDIDVMELYPALLVEKPRPDAIFGETMVELGAPFSLKGLMGNPICSPQYWKPSTFGGEVGFKIINTASIQSLICNNVKGCPFTSFNVQDPQPTKTATINASASHSRLDDINPTVLIKRRSTEL
B2 showed a Km [6] of 8.2 ± 1.6 µM, a kcat [6] of 20.5 ± 1.6 s⁻¹ and a kcat/Km [6] of 2.5e+06 M⁻¹ s⁻¹. For the same molecule, the Km [7] was 4.7 ± 0.8 µM, the kcat [7] was 11.1 ± 0.7 s⁻¹ and the kcat/Km [7] was 2.3e+06 M⁻¹ s⁻¹.
